Data reported in patent US20120060230.

Assays:
Assay in all cases: cell_activity
ZFN 28385 (synthetic) = conditions: pair with 28386, HEK293
ZFN 28386 (synthetic) = conditions: pair with 28385, HEK293
ZFN 28406 (synthetic) = conditions: pair with 28405, HEK293
ZFN 28405 (synthetic) = conditions: pair with 28406, HEK293
ZFN 15487 (synthetic) = conditions: pair with 15486, K562; approx 1% in RAJI
ZFN 25540 (synthetic) = conditions: pair with 25539, 10 ug mRNA, primary T cells; background 2.4%
ZFN 28404 (synthetic) = conditions: pair with 28403, HEK293
ZFN 15872 (synthetic) = conditions: pair with 15873, wt FokI, K562; approx 28% with EL/KK
ZFN 15873 (synthetic) = conditions: pair with 15872, wt FokI, K562; approx 28% with EL/KK
ZFN 28403 (synthetic) = conditions: pair with 28404, HEK293
ZFN 15910 (synthetic) = conditions: pair with 15909, EL/KK FokI, K562; 6 and 11% with wt FokI
ZFN 15507 (synthetic) = conditions: pair with 15506, K562
ZFN 18889 (synthetic) = conditions: pair with 24859, HLA A2, HEK293; with 18881 approx 3%; A3 allele 10% and 9%
ZFN 24859 (synthetic) = conditions: pair with 18889, HLA A2, HEK293; A3 allele 10%
ZFN 15909 (synthetic) = conditions: pair with 15910, EL/KK FokI, K562; 6 and 11% with wt FokI
ZFN 16787 (synthetic) = conditions: pair with 16783, 10 ug mRNA, primary T cells; background 2.4%
ZFN 18881 (synthetic) = conditions: pair with 18889, HLA A2, HEK293; A3 allele 9%
ZFN 15506 (synthetic) = conditions: pair with 15507, K562
ZFN 28393 (synthetic) = conditions: pair with 28394, HEK293
ZFN 28394 (synthetic) = conditions: pair with 28393, HEK293
ZFN 25539 (synthetic) = conditions: pair with 25540, 10 ug mRNA, primary T cells; background 2.4%

ACTCTGGGGTAGATGGAGAGCAGTACCT (double strand) [28385 site]
activity (% gene modification) (ZFN 28385 (synthetic)): 39

AGAAGGCTGTGGGCTCCTCAGAGAAAAT (double strand) [28386 site]
activity (% gene modification) (ZFN 28386 (synthetic)): 39

CCACAGCCAGAGCCTCAGCAGGAGCCTG (double strand) [28406 site]
activity (% gene modification) (ZFN 28406 (synthetic)): 34

CGCAAGAGGCTGGAGAGGCTGAGGACTG (double strand) [28405 site]
activity (% gene modification) (ZFN 28405 (synthetic)): 34

CTACTCGGGCCATCGGCGGCTGCCTCGG (double strand) [15487 site]
activity (% gene modification) (ZFN 15487 (synthetic)): 15

CTGACTTTGCATGTGCAAACGCCTTCAA (double strand) [25540 site]
activity (% CD3-negative cells) (ZFN 25540 (synthetic)): 28.1

CTGGATGGGGCTTGGCTGATGGTCAGCA (double strand) [28404 site]
activity (% gene modification) (ZFN 28404 (synthetic)): 64

GAAATAAGGCATACTGGTATTACTAATG (double strand) [15872 site]
activity (ZFN 15872 (synthetic)): 13 % NHEJ

GAGGAGAGCAGGCCGATTACCTGACCCA (double strand) [15873 site]
activity (ZFN 15873 (synthetic)): 13 % NHEJ

GCCCGCGGGCAGTTCTGCGCGGGGGTCA (double strand) [28403 site]
activity (% gene modification) (ZFN 28403 (synthetic)): 64

GCGGGGGAAAGAGAGGAGGAGAGAAGGA (double strand) [15910 site]
activity (ZFN 15910 (synthetic)): 14 % NHEJ

GCTCGAAGGCTTGGTGGCCGGGGCCAGT (double strand) [15507 site]
activity (% gene modification) (ZFN 15507 (synthetic)): 2

GTATGGCTGCGACGTGGGGTCGGACGGG (double strand) [18889 site]
activity (ZFN 18889 (synthetic)): 6 % NHEJ

TCCTCTGGACGGTGTGAGAACCTGGCCC (double strand) [24859 site]
activity (ZFN 24859 (synthetic)): 6 % NHEJ

TCTCCCAGGGTGGTTCAGTGGCAGAATT (double strand) [15909 site]
activity (ZFN 15909 (synthetic)): 14 % NHEJ

TCTCGGAGAATGACGAGTGGACCCAGGA (double strand) [16787 site]
activity (% CD3-negative cells) (ZFN 16787 (synthetic)): 9.4

TTATCTGGATGGTGTGAGAACCTGGCCC (double strand) [18881 site]
activity (ZFN 18881 (synthetic)): 3 % NHEJ

TTGATGTCAGGGAAGATCTCTCTGATGA (double strand) [15506 site]
activity (% gene modification) (ZFN 15506 (synthetic)): 2

TTGATTCGAGACATGGTGTAGGTGAAGC (double strand) [28393 site]
activity (% gene modification) (ZFN 28393 (synthetic)): 49

TTGCGGATCCGGGAGCAGCTTTTCTCCT (double strand) [28394 site]
activity (% gene modification) (ZFN 28394 (synthetic)): 49

TTGTTGCTCCAGGCCACAGCACTGTTGC (double strand) [25539 site]
activity (% CD3-negative cells) (ZFN 25539 (synthetic)): 28.1
